Experimental data from patent US20240209334A1, “SMALL-MOLECULE-ACTIVATED GLYCAN MODIFYING ENZYMES AND USES THEREOF” (President and Fellows of Harvard College, priority 2022, published 2024).

Assays:
Nup62-NLS = assay: Spatial deglycosylation of nuclear Nup62-NLS by OGA-intein(C181) variants in HEK293T cells; assay type: cell-based; conditions: nuclear Nup62-NLS co-expressed
Procedure: (§1) Next, it was assessed whether these OGA-intein(C181) variants enable selective spatial deglycosylation in live cells. As O-GlcNAc affects the subcellular localization of many proteins (37), Nup62 was used as a model cytoplasmic substrate, which was previously primarily localized in the cytoplasm when transiently overexpressed in HEK293T cells independent of the O-GlcNAcylation state (13) (FIGS. 11A, 11B). Nup62 was co-expressed with three OGA-intein(C181) variants (C181-WT, C181-NLS, and C181-NES) in HEK293T cells, and Nup62 was enriched for O-GlcNAc measurement. […] Next, Nup62 was localized to the nucleus by attachment to an NLS tag (Nup62-NLS), and a similar coexpression and 4-HT-triggered activation was performed with OGA-intein(C181) variants. […] The fluorescent intensity of OGA-intein variants also show a strong correlation to the localization of Nup62, indicating the desired subcellular distribution (FIGS. 11A-C).
(§2) Immunoprecipitation and Immunoblot assays. […]
(§3) For immunoblotting analysis, proteins were transferred to a nitrocellulose membrane using an iBlot system (Invitrogen). […] Immunoblot images were captured using Azure Imager C600 and analyzed with Fiji ImageJ for converting all IR fluorescence western blot images to grayscale images.

[1] = system: global O-GlcNAc level in MCF-7 cells; assay: Immunoblot of global O-GlcNAc level and splicing in MCF-7 stable cell lines; assay type: cell-based, human; conditions: MCF-7 cells stably expressing the variant
Source text: In addition to serving as an activator for intein splicing, 4-HT is also known as the active metabolite of tamoxifen, an FDA-approved drug for treating breast cancer patients. Breast cancer cells also have elevated OGT expression (39) and decreased levels of OGA (40, 41), resulting in elevated O-GlcNAcylation in the proteome. OGT is usually required for tumor growth and metastasis (39), and low OGA expression is correlated with poor survival in breast cancer patients (FIG. 13). The ER positive breast cancer-derived MCF-7 cell line is sensitive to tamoxifen and 4-HT, resulting in suppression of cell proliferation, yet drug resistance occurs after long-term treatment (42). Previous studies also show evidence that upregulation of O-GlcNAcylation protects MCF-7 cells from tamoxifen-induced cell death (43). To determine if reduction of O-GlcNAc sensitized MCF-7 cells to 4-HT treatment, it was assessed whether 4-HT induced inhibition of breast cancer cell proliferation and OGA-intein activation worked synergistically to accelerate cell death (FIG. 5A). […] Next, these two cell lines were treated with 4-HT at increasing concentrations, and cell viability was measured after 48 hours. […] Given that 4-HT promoted MCF-7 cell death through apoptosis (43), the apoptosis of these cells under 4-HT treatment was further analyzed through flow cytometry analyses following Annexin V and DAPI staining. […]

Nup62 = assay: Spatial deglycosylation of cytoplasmic Nup62 by OGA-intein(C181) variants in HEK293T cells; assay type: cell-based; conditions: cytoplasmic Nup62 co-expressed
Procedure: as §1, §2, §3

B1: C181-NLS: OGA-intein(C181) appended to a nuclear-localization sequence (protein)
chain: MEQKLISEEDLAIAMVQKESQATLEERESELSSNPAASAGASLEPPAAPAPGEDNPAGAGGAAVAGAAGGARRFLCGVVEGFYGRPWVMEQRKELFRRLQKWELNTYLYAPKDDYKHRMFWREMYSVEEAEQLMTLISAAREYEIEFIYAISPGLDITFSNPKEVSTLKRKLDQVSQFGCRSFALLFDDIDHNMCLAEGTRIFDPVTGTTHRIEDVVDGRKPIHVVAAAKDGTLLARPVVSWFDQGTRDVIGLRIAGGAIVWATPDHKVLTEYGWRAAGELRKGDRVAGPGGSGNSLALSLTADQMVSALLDAEPPILYSEYDPTSPFSEASMMGLLTNLADRELVHMINWAKRVPGFVDLTLHDQAHLLERAWLEILMIGLVWRSMEHPGKLLFAPNLLLDRNQGKCVEGMVEIFDMLLATSSRFRMMNLQGEEFVCLKSIILLNSGVYTFLSSTLKSLEEKDHIHRALDKITDTLIHLMAKAGLTLQQQHQRLAQLLLILSHIRHMSNKGMEHLYSMKYKNVVPLYDLLLEMLDAHRLHAGGSGASRVQAFADALDDKFLHDMLAEGLRYSVIREVLPTRRARTFDLEVEELHTLVAEGVVVHNCAADKEVFSSFAHAQVSITNEIYQYLGEPETFLFCPTEYCGTFCYPNVSQSPYLRTVGEKLLPGIEVLWTGPKVVSKEIPVESIEEVSKIIKRAPVIWDNIHANDYDQKRLFLGPYKGRSTELIPRLKGVLTNPNCEFEANYVAIHTLATWYKSNMNGVRKDVVMTDSEDSTVSIQIKLENEGSDEDIETDVLYSPQMALKLALTEWLQEFGVPHQYSSRGSGSGSGSGSGSGSGEKPLYTAEPVTLEDLQLLADLFYLPYEHGPKGAQMLREFQWLRANSSVVSVNCKGKDSEKIEEWRSRAAKFEEMCGLVMGMFTRLSNCANRTILYDMYSYVWDIKSIMSMVKSFVQWLGCRSHSSAQFLIGDQEPWAFRGGLAGEFQRLLPIDGANDLFFQPPKRPAATKKAGQAKKKK
- 4-HT-induced deglycosylation of Nup62-NLS (Nup62-NLS): 4-HT-induced deglycosylation

B2: C181_D174N: catalytically dead mutant (D174N) of OGA-intein(C181) (protein)
chain: MEQKLISEEDLAIAMVQKESQATLEERESELSSNPAASAGASLEPPAAPAPGEDNPAGAGGAAVAGAAGGARRFLCGVVEGFYGRPWVMEQRKELFRRLQKWELNTYLYAPKDDYKHRMFWREMYSVEEAEQLMTLISAAREYEIEFIYAISPGLDITFSNPKEVSTLKRKLDQVSQFGCRSFALLFNDIDHNMCLAEGTRIFDPVTGTTHRIEDVVDGRKPIHVVAAAKDGTLLARPVVSWFDQGTRDVIGLRIAGGAIVWATPDHKVLTEYGWRAAGELRKGDRVAGPGGSGNSLALSLTADQMVSALLDAEPPILYSEYDPTSPFSEASMMGLLTNLADRELVHMINWAKRVPGFVDLTLHDQAHLLERAWLEILMIGLVWRSMEHPGKLLFAPNLLLDRNQGKCVEGMVEIFDMLLATSSRFRMMNLQGEEFVCLKSIILLNSGVYTFLSSTLKSLEEKDHIHRALDKITDTLIHLMAKAGLTLQQQHQRLAQLLLILSHIRHMSNKGMEHLYSMKYKNVVPLYDLLLEMLDAHRLHAGGSGASRVQAFADALDDKFLHDMLAEGLRYSVIREVLPTRRARTFDLEVEELHTLVAEGVVVHNCAADKEVFSSFAHAQVSITNEIYQYLGEPETFLFCPTEYCGTFCYPNVSQSPYLRTVGEKLLPGIEVLWTGPKVVSKEIPVESIEEVSKIIKRAPVIWDNIHANDYDQKRLFLGPYKGRSTELIPRLKGVLTNPNCEFEANYVAIHTLATWYKSNMNGVRKDVVMTDSEDSTVSIQIKLENEGSDEDIETDVLYSPQMALKLALTEWLQEFGVPHQYSSRGSGSGSGSGSGSGSGEKPLYTAEPVTLEDLQLLADLFYLPYEHGPKGAQMLREFQWLRANSSVVSVNCKGKDSEKIEEWRSRAAKFEEMCGLVMGMFTRLSNCANRTILYDMYSYVWDIKSIMSMVKSFVQWLGCRSHSSAQFLIGDQEPWAFRGGLAGEFQRLLPIDGANDLFFQPP
- global O-GlcNAc level after adding 4-HT [1]: inactive form

B3: C181-NES: OGA-intein(C181) appended to a nuclear-export sequence (protein)
chain: MEQKLISEEDLAIAMVQKESQATLEERESELSSNPAASAGASLEPPAAPAPGEDNPAGAGGAAVAGAAGGARRFLCGVVEGFYGRPWVMEQRKELFRRLQKWELNTYLYAPKDDYKHRMFWREMYSVEEAEQLMTLISAAREYEIEFIYAISPGLDITFSNPKEVSTLKRKLDQVSQFGCRSFALLFDDIDHNMCLAEGTRIFDPVTGTTHRIEDVVDGRKPIHVVAAAKDGTLLARPVVSWFDQGTRDVIGLRIAGGAIVWATPDHKVLTEYGWRAAGELRKGDRVAGPGGSGNSLALSLTADQMVSALLDAEPPILYSEYDPTSPFSEASMMGLLTNLADRELVHMINWAKRVPGFVDLTLHDQAHLLERAWLEILMIGLVWRSMEHPGKLLFAPNLLLDRNQGKCVEGMVEIFDMLLATSSRFRMMNLQGEEFVCLKSIILLNSGVYTFLSSTLKSLEEKDHIHRALDKITDTLIHLMAKAGLTLQQQHQRLAQLLLILSHIRHMSNKGMEHLYSMKYKNVVPLYDLLLEMLDAHRLHAGGSGASRVQAFADALDDKFLHDMLAEGLRYSVIREVLPTRRARTFDLEVEELHTLVAEGVVVHNCAADKEVFSSFAHAQVSITNEIYQYLGEPETFLFCPTEYCGTFCYPNVSQSPYLRTVGEKLLPGIEVLWTGPKVVSKEIPVESIEEVSKIIKRAPVIWDNIHANDYDQKRLFLGPYKGRSTELIPRLKGVLTNPNCEFEANYVAIHTLATWYKSNMNGVRKDVVMTDSEDSTVSIQIKLENEGSDEDIETDVLYSPQMALKLALTEWLQEFGVPHQYSSRGSGSGSGSGSGSGSGEKPLYTAEPVTLEDLQLLADLFYLPYEHGPKGAQMLREFQWLRANSSVVSVNCKGKDSEKIEEWRSRAAKFEEMCGLVMGMFTRLSNCANRTILYDMYSYVWDIKSIMSMVKSFVQWLGCRSHSSAQFLIGDQEPWAFRGGLAGEFQRLLPIDGANDLFFQPPLALKLAGLDIN
- removal of O-GlcNAc from Nup62 after 4-HT-triggered activation (Nup62): removed O-GlcNAc from Nup62
